PMC3675359, “GxcC connects Rap and Rac signaling during Dictyostelium development” (BMC Cell Biology, 2013)

Molecular target: T1, NtermGxcC (aa 1-633), recombinant GST-ARM purified from E. coli (Dictyostelium discoideum, UniProt Q54P24 1-633)
T1 construct: GxcC, Dictyostelium discoideum, UniProt Q54P24; aa 1-633 as printed, from pGEX4T3; the cloning paragraph says that the N-terminal fragment of base pairs 1-1911 (637 codons) was ligated into pGEX 4T3; also called ARM domain of GxcC; purified GxcC ARM domain; not shown: GST, N-terminal, kept
T1 sequence (looked up): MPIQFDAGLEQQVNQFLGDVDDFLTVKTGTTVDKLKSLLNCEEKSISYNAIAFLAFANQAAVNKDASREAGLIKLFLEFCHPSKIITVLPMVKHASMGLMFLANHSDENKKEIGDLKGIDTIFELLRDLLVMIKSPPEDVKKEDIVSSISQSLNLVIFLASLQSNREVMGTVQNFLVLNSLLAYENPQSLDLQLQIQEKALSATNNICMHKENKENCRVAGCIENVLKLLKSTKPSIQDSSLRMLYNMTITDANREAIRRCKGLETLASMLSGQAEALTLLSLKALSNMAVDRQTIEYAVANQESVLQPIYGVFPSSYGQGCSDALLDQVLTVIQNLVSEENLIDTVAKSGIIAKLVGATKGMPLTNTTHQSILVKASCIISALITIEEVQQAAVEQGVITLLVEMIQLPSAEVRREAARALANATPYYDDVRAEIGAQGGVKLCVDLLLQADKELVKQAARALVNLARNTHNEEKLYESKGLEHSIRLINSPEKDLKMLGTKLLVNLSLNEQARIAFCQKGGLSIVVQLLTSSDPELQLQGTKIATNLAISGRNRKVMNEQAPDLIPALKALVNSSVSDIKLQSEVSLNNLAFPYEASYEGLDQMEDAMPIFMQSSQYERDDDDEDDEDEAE
Assay: guanine nucleotide dissociation inhibition (GDI) assay; G-protein loaded with mGppNHp incubated with an excess of unlabelled nucleotide; decay of fluorescence (kobs) at varying concentrations of GST-ARM
Details: both partners purified

Kd: 13.3 µM
B1: RapA purified from E. coli (loaded with mGppNHp or mGDP) (natural protein, Dictyostelium discoideum, UniProt P18613 1-186, looked up)
chain: MPLREFKIVVLGSGGVGKSALTVQFVQGIFVEKYDPTIEDSYRKQVEVDSNQCMLEILDTAGTEQFTAMRDLYMKNGQGFVLVYSIISNSTFNELPDLREQILRVKDCEDVPMVLVGNKCDLHDQRVISTEQGEELARKFGDCYFLEASAKNKVNVEQIFYNLIRQINRKNPVGPPSKAKSKCALL
notes: RapA, Dictyostelium discoideum; Loaded with the fluorescent nucleotide mGppNHp (or mGDP); It may be the GST-RapA of the screen with or without its GST; source: E. coli, purified
